These results are taken from patent US20140099299A1 (UAB RESEARCH FOUNDATION, published 2014).

The target of assay [1] is T1, human IL-10R1 chain coupled to agarose beads (human, UniProt Q13651 22-235).
T1 construct: also called HuIL-10R1 coupled beads; human IL-10R1 beads
T1 sequence: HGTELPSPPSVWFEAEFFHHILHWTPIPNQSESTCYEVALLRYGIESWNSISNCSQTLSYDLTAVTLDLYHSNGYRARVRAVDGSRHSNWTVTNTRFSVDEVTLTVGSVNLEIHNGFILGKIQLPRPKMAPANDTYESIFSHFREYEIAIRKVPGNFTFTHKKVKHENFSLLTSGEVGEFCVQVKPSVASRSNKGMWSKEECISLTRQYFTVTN
In words: pull-down of 500 µL Drosophila medium with 15 µL HuIL-10R1-coupled agarose beads, Coomassie-stained SDS-PAGE.

Assay [2] has as its target T2, human IL-10R1 chain on transfected TF-1 cells (TF-1/HuIL-10R1) (human, UniProt Q13651 22-578).
T2 sequence: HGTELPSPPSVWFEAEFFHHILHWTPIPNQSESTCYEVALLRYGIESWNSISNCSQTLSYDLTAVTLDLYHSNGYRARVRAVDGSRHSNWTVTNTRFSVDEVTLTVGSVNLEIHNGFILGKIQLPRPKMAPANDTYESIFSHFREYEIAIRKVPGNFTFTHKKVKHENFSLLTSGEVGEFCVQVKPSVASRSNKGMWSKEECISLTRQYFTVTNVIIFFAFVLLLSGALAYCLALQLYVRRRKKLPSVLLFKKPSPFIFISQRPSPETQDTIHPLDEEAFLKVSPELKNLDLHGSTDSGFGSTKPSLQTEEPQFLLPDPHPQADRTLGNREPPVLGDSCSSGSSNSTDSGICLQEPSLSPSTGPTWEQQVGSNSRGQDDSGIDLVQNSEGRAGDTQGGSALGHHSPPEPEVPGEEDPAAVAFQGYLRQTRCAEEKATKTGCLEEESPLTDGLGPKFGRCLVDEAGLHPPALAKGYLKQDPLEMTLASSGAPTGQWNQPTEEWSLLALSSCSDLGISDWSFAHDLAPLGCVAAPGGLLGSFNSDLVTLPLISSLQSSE
As to the kind of experiment: cell-based or functional assay.

Positions count from the first letter of the chain named. Numbers in names are those of the source.

B1: H6FXa-rhcmvIL-10 Arg-34Glu point mutant (R63E of SEQ ID NO:1) (ligand)
chain: PPHHHHHHSDIEGRAHDHEHKEVPPACDPVHGNLAGIFKELRATYASIEEGLQKKDTVYYTSLFNDRVLHEMLSPMGCRVTNELMEHYLDGVLPRASHLDYDNSTLNGLHVFASSMQALYQHMLKCPALACTGKTPAWMYFLEVEHKLNPWRGTAKAAAEADLLLNYLETFLLQF
notes: Tested as Drosophila cell supernatant; Its exact end in pAHF cannot be seen because the underlining is lost; also called R34E; Lys-34Glu
B1: the binding result in assay [1] is “no binding”.

B2: H6FXa-rhcmvIL-10 Asp-144His point mutant (D176H of SEQ ID NO:1) (ligand)
chain: B1 chain with E49R, D162H
notes: Tested as Drosophila cell supernatant; also called D144H
As for B2, in assay [1], the binding result is given as “no binding”. In assay [2], the “proliferation of TF-1/HuIL-10R1 cells” value is ~300 fold reduction in activity.

B3: H6FXa-rhcmvIL-10 Gln-38Arg point mutant (Q67R of SEQ ID NO:1) (ligand)
chain: B1 chain with E49R, Q53R
notes: Tested as Drosophila cell supernatant; also called Q38R
In the case of B3, in assay [1], the binding result is reported as “no binding”. In addition, the “proliferation of TF-1/HuIL-10R1 cells” value in assay [2] is ~100 fold reduction in activity.
